This is an account of results in IntAct's records for PubMed 18796637.

B1: B-box zinc finger protein 22 (Arabidopsis thaliana (Mouse-ear cress)), Q9SYM2 (parent)
chain: MKIQCNVCEAAEATVLCCADEAALCWACDEKIHAANKLAGKHQRVPLSASASSIPKCDICQEASGFFFCLQDRALLCRKCDVAIHTVNPHVSAHQRFLLTGIKVGLESIDTGPSTKSSPTNDDKTMETKPFVQSIPEPQKMAFDHHHHQQQQEQQEGVIPGTKVNDQTSTKLPLVSSGSTTGSIPQWQIEEIFGLTDFDQSYEYMENNGSSKADTSRRGDSDSSSMMRSAEEDGEDNNNCLGGETSWAVPQIQSPPTASGLNWPKHFHHHSVFVPDITSSTPYTGSSPNQRVGKRRRRF
partner: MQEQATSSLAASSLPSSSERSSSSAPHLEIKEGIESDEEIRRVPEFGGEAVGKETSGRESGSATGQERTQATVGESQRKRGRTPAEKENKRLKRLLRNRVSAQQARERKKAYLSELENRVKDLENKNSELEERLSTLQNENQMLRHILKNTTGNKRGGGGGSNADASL

In the test the parent is B1. Particulars: with hy5_arath HY5, O24646.
On to MKIQCNVCEAAEATVLCCADEAALCWACDEKIHAANKLAGKHQRVPLSASASSIPKCDICQEASGFFFCLQARALLCRKCDVAIHTVNPHVSAHQRFLLTGIKVGLESIDTGPSTKSSPTNDDKTMETKPFVQSIPEPQKMAFDHHHHQQQQEQQEGVIPGTKVNDQTSTKLPLVSSGSTTGSIPQWQIEEIFGLTDFDQSYEYMENNGSSKADTSRRGDSDSSSMMRSAEEDGEDNNNCLGGETSWAVPQIQSPPTASGLNWPKHFHHHSVFVPDITSSTPYTGSSPNQRVGKRRRRF [D72A], for which the “effect of a mutation on the interaction” value is on record as “disrupting interaction”.

Consider MKIQCNVCEAAEATVLCCADEAALCWACDEKIHAANKLAGKHQRVPLSASASSIPKCDICQEASGFFFCLQDRALLCRKCAVAIHTVNPHVSAHQRFLLTGIKVGLESIDTGPSTKSSPTNDDKTMETKPFVQSIPEPQKMAFDHHHHQQQQEQQEGVIPGTKVNDQTSTKLPLVSSGSTTGSIPQWQIEEIFGLTDFDQSYEYMENNGSSKADTSRRGDSDSSSMMRSAEEDGEDNNNCLGGETSWAVPQIQSPPTASGLNWPKHFHHHSVFVPDITSSTPYTGSSPNQRVGKRRRRF [D81A], for which the “effect of a mutation on the interaction” value is reported as “disrupting interaction”.
